Consider one substance from PMC3347535, “D-Arabinose Methabolism: Characterization of Bifunctional Arabinokinase/Pyrophosphorylase of Leishmania major” (Acta Naturae, 2009).

This data set concerns O=P(O)(O)OC1OC[C@@H](O)[C@@H](O)[C@@H]1O. As to the kind of experiment: purified protein. The following applies: GDP-D-Arap pyrophosphorylase reaction; GTP co-substrate; exogenous arabinose phosphate; kinetic assay conditions not given.

On to LmjF16.0480 (Leishmania major), for which the Km (as a rule, the concentration of substrate that gives half-maximal velocity) came out at 67.0 mM.
